Experimental data as given in patent publication US20120165503A1 (Merck Sharp & Dohme, published 2012).
Substitutions are numbered along the chain they refer to. Numbers in names are those of the source. Like-named read-outs stand apart in the source and are kept apart here. *1 amine or outer side, *2 acyl side, *3 side chain or, on linkers, in order; H or OH if unused. Where no end group is shown, it is not given here. Side-chain parts run from the residue outwards. [ ]: non-standard residue; d: D form. The star is where a group is joined. O‑methyl‑L‑homoserine = COCC[C@H](N[*:1])C(=O)[*:2]; γGlu = O=C(O)[C@H](CCC(=O)[*:2])N[*:1]; Palmitoyl = CCCCCCCCCCCCCCCC(=O)*; Nle = CCCC[C@H](N)C(=O)O; Aib = CC(C)(N)C(=O)O

B1: OXM-Q3E (peptide)
peptide: HSEGTFTSDYSKYLDSRRAQDFVQWLMNTKRNRNNIA
notes: Native OXM with Glu instead of Gln at position 3; the entry already carries the change; also called OXM8 (Q3E); GLP-1 mimetic
B2: OXM418 (peptide)
peptide: H[dS]QGTFTSDK([γGlu-γGlu-Palmitoyl])SKYLD[Aib]RRAQDFVQWLMNTK[γGlu]-NH2
modifications: N-terminus assumed
SMILES: CCCCCCCCCCCCCCCC(=O)N[C@@H](CCC(=O)N[C@@H](CCC(=O)NCCCC[C@H](NC(=O)[C@H](CC(=O)O)NC(=O)[C@H](CO)NC(=O)[C@@H](NC(=O)[C@H](Cc1ccccc1)NC(=O)[C@@H](NC(=O)CNC(=O)[C@H](CCC(N)=O)NC(=O)[C@@H](CO)NC(=O)[C@@H](N)Cc1c[nH]cn1)[C@@H](C)O)[C@@H](C)O)C(=O)N[C@@H](CO)C(=O)N[C@@H](CCCCN)C(=O)N[C@@H](Cc1ccc(O)cc1)C(=O)N[C@@H](CC(C)C)C(=O)N[C@@H](CC(=O)O)C(=O)NC(C)(C)C(=O)N[C@@H](CCCNC(=N)N)C(=O)N[C@@H](CCCNC(=N)N)C(=O)N[C@@H](C)C(=O)N[C@@H](CCC(N)=O)C(=O)N[C@@H](CC(=O)O)C(=O)N[C@@H](Cc1ccccc1)C(=O)N[C@H](C(=O)N[C@@H](CCC(N)=O)C(=O)N[C@@H](Cc1c[nH]c2ccccc12)C(=O)N[C@@H](CC(C)C)C(=O)N[C@@H](CCSC)C(=O)N[C@@H](CC(N)=O)C(=O)N[C@H](C(=O)N[C@@H](CCCCN)C(=O)N[C@@H](CCC(N)=O)C(=O)O)[C@@H](C)O)C(C)C)C(=O)O)C(=O)O
B3: OXM414 (peptide)
peptide: H[dS]QGTFTSDK([γGlu-Palmitoyl])SKYLDERRAQDFVQWLMNTK[γGlu]-NH2
modifications: N-terminus assumed
SMILES: CCCCCCCCCCCCCCCC(=O)N[C@@H](CCC(=O)NCCCC[C@H](NC(=O)[C@H](CC(=O)O)NC(=O)[C@H](CO)NC(=O)[C@@H](NC(=O)[C@H](Cc1ccccc1)NC(=O)[C@@H](NC(=O)CNC(=O)[C@H](CCC(N)=O)NC(=O)[C@@H](CO)NC(=O)[C@@H](N)Cc1c[nH]cn1)[C@@H](C)O)[C@@H](C)O)C(=O)N[C@@H](CO)C(=O)N[C@@H](CCCCN)C(=O)N[C@@H](Cc1ccc(O)cc1)C(=O)N[C@@H](CC(C)C)C(=O)N[C@@H](CC(=O)O)C(=O)N[C@@H](CCC(=O)O)C(=O)N[C@@H](CCCNC(=N)N)C(=O)N[C@@H](CCCNC(=N)N)C(=O)N[C@@H](C)C(=O)N[C@@H](CCC(N)=O)C(=O)N[C@@H](CC(=O)O)C(=O)N[C@@H](Cc1ccccc1)C(=O)N[C@H](C(=O)N[C@@H](CCC(N)=O)C(=O)N[C@@H](Cc1c[nH]c2ccccc12)C(=O)N[C@@H](CC(C)C)C(=O)N[C@@H](CCSC)C(=O)N[C@@H](CC(N)=O)C(=O)N[C@H](C(=O)N[C@@H](CCCCN)C(=O)N[C@@H](CCC(N)=O)C(=O)O)[C@@H](C)O)C(C)C)C(=O)O
B4: OXM70 (peptide)
peptide: HXQGTFTSDYSKYLDSRRAQDFVQWLMNTKRNRNNIAC
modifications: Aib at position 2; C4 = Cys(cholest-5-en-3-yl{[(2R)-3-amino-2-(amino)-3-oxopropyl]thio}acetate) at position 38; C-terminal amide
B5: OXM115 (peptide)
peptide: B4 peptide with X2S
modifications: D-Ser at position 2; C7 = Cys(Oxa4-cholesterol) at position 38; C-terminal amide

Assays:
[1] = biological target: T1, glucagon receptor of wild-type mice (liver, in vivo) (mouse, UniProt Q61606 27-485); test: in vivo competition with 125I-glucagon, liver of wild-type mice, s.c. dosing
T1 construct: whole, on cells; Receptor occupancy measured in vivo in liver; also called GCGR; GGCR

human GLP-1 receptor [2] = biological target: T2, human GLP-1 receptor (human, UniProt P43220 24-463); test: cell-based or functional assay
human glucagon receptor [3] = biological target: T3, human glucagon receptor (human, UniProt P47871 26-477); test: cell-based or functional assay
human GLP-1 receptor [4] = biological target: T2, human GLP-1 receptor; test: receptor binding affinity (GLP-1R IC50); assay format not described
human GLP-1 receptor [5] = biological target: T2, human GLP-1 receptor; test: cell-based or functional assay; remark: listed apart in the source
human glucagon receptor [6] = biological target: T3, human glucagon receptor; test: cell-based or functional assay; remark: listed apart in the source
human GLP-1 receptor [7] = biological target: T2, human GLP-1 receptor; test: cell-based or functional assay; remark: listed apart in the source
human glucagon receptor [8] = biological target: T3, human glucagon receptor; test: cell-based or functional assay; remark: listed apart in the source
human GLP-1 receptor [9] = biological target: T2, human GLP-1 receptor; test: cell-based or functional assay; remark: listed apart in the source
human glucagon receptor [10] = biological target: T3, human glucagon receptor; test: cell-based or functional assay; remark: listed apart in the source
[11] = biological target: T1, glucagon receptor of wild-type mice …; test: in vivo GCGR receptor occupancy, competition assay in wild-type mice, 3 mpk s.c.

T1 sequence (Q61606 27-485): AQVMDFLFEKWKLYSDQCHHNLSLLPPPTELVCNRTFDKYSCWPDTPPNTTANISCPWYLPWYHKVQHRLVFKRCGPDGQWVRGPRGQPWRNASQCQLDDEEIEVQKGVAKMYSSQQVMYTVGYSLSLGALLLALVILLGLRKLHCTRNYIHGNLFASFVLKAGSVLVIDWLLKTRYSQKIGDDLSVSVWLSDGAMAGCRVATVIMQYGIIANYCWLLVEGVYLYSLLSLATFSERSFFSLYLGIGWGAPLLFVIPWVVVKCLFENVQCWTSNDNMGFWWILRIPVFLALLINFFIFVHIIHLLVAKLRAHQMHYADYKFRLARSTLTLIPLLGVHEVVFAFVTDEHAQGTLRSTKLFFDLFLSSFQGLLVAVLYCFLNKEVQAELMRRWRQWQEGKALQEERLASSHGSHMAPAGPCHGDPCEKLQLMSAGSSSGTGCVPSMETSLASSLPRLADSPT
T3 sequence (P47871 26-477): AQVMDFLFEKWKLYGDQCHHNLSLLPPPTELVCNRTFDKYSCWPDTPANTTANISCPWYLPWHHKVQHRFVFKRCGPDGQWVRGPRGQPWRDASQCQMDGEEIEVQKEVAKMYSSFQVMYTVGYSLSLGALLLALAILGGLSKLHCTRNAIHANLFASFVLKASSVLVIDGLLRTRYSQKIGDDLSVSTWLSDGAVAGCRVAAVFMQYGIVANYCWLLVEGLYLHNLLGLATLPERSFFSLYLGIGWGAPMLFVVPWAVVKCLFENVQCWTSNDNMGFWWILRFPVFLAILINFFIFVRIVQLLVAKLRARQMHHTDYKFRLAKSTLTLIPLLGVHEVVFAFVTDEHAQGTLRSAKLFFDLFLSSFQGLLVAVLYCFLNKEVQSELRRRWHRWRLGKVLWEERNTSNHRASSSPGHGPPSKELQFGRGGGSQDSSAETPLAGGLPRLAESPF

Row | Binder | GLP-1R EC50 (human GLP-1 receptor [5]) | % Activation of GCGR (human glucagon receptor [6]) | GCGR + 10% plasma (human glucagon receptor [6]) | GCGR EC50 (human glucagon receptor [6]) | % RO @ 3 mpk s.c. [11] | further results
1 | B1 |  |  |  |  |  | binding result [1]: no binding; GLP-1R EC50 (human GLP-1 receptor [2]): 12.4 nM; % Activation of GCGR (human glucagon receptor [3]): 17%; GCGR EC50 (human glucagon receptor [3]): 1640 nM; IC50 (human GLP-1 receptor [4]): 237 nM
2 | HSDGTFTSDYSKYLDSRRAQDFVQWLMNTKRNRNNIA [OXM-Q3D] |  |  |  |  |  | GLP-1R EC50 (human GLP-1 receptor [2]): 2.3 nM; % Activation of GCGR (human glucagon receptor [3]): 1%; GCGR EC50 (human glucagon receptor [3]): 3400 nM
3 | H[Aib]QGTFTSDYSKYLDSRRAQDFVQWL[Nle]NTKRNRNNIAC(cholesterol)-NH2 [OXM212] | 0.6 nM | 115% | 1030 nM | 11.3 nM |  | GCGR + 10% plasma (fold shift) (human glucagon receptor [6]): 92 fold
4 | B2 |  |  |  |  |  | hGLP-1R + 20% Plasma EC50 (human GLP-1 receptor [7]): 0.3 nM; hGCGR + 20% plasma EC50 (human glucagon receptor [8]): 0.3 nM; hGLP-1R EC50 (human GLP-1 receptor [9]): 0.026 nM; hGCGR EC50 (human glucagon receptor [10]): 0.002 nM
5 | B3 |  |  |  |  |  | hGLP-1R + 20% Plasma EC50 (human GLP-1 receptor [7]): 0.07 nM; hGCGR + 20% plasma EC50 (human glucagon receptor [8]): 0.15 nM; hGLP-1R EC50 (human GLP-1 receptor [9]): 0.007 nM; hGCGR EC50 (human glucagon receptor [10]): 0.005 nM
6 | B4 | 0.15 nM |  | 169 nM | 2.4 nM | ~0% | 
7 | B5 | 0.08 nM | 100% | 0.64 nM | 0.33 nM | 36% | 
8 | HXQGTFTSDYSKYLDSRRAQDFVQWLMNTKRNRNNIAC (Aib at position 2; C7 = Cys(Oxa4-cholesterol) at position 38; C-terminal amide) [OXM216] | 3.1 nM | 93% | 12 nM | 0.63 nM | 10% | 
9 | HXQGTFTSDYSKYLDSRRAQDFVQWLMNTKRNRNNIAK (Aib at position 2; K(palmitoyl) at position 38; C-terminal amide) [OXM177] | 0.1 nM | 93% | 3 nM | 0.59 nM | 30% | GCGR + 10% plasma (fold shift) (human glucagon receptor [6]): 5 fold
10 | H[Aib]QGTFTSDYSKYLDSRRAQDFVQWL[O‑methyl‑L‑homoserine]NTKRNRNNIAC(cholesterol)-NH2 [OXM213] | 0.3 nM |  | 1210 nM | 27.6 nM |  | 
